The values that follow come from patent US20100323443A1 (BIOLAMINA, published 2010).

Experiment [1] concerns the target β1-integrin on mouse embryonic stem cells (mouse) (UniProt P09055). The experiment is described as follows: cell-based or functional assay.
The target in experiment [2] is T1, human recombinant laminin-511 (human, UniProt O15230 36-3695; P07942 22-1786; P11047 34-1609).
T1 construct: Coated on plates (30 ug/ml) in the adhesion assays; also called laminin-10
The experiment is described as follows: summary of the adhesion-blocking assays. How it is done: Attachment assay was performed as described ([Extracellular Matrix Protocols, 2000). Briefly, MaxiSorp 96-well plates (Nunc) coated by extracellular matrix proteins as described above and blocked by 1% heat-denatured BSA solution. Undifferentiated embryonic cells were plated at cell density of 800 cell/mm² upon extracellular matrix-coated plates and were left to adhere for 1 hour at 37° C. Non-adherent cells were washed away, and adherent cells were fixed for 20 min by 5% glutaraldehyde, stained by 0.1% Crystal Violet.
Adhesion-blocking assays were performed as described previously. […] Non-attached cells were removed and the remaining cells were fixed, stained and quantified as described above (Cell adhesion assay). Error bars show standard error (SEM).

In experiment [1], “human recombinant laminin-511, O15230 36-3695; P07942 22-1786; P11047 34-1609” registered a Blocking those integrins inhibits ES cell adhesion to LN-511 of 100%.

B1: α6β1 integrin on mouse embryonic stem cells (receptor)
chain 1: FNLDTREDNVIRKSGDPGSLFGFSLAMHWQLQPEDKRLLLVGAPRAEALPLQRANRTGGLYSCDITSRGPCTRIEFDNDADPMSESKEDQWMGVTVQSQGPGGKVVTCAHRYEKRQHVNTKQESRDIFGRCYVLSQNLRIEDDMDGGDWSFCDGRLRGHEKFGSCQQGVAATFTKDFHYIVFGAPGTYNWKGIVRVEQKNNTFFDMNIFEDGPYEVGGETDHDESLVPVPANSYLGFSLDSGKGIVSKDDITFVSGAPRANHSGAVVLLKRDMKSAHLLPEYIFDGEGLASSFGYDVAVVDLNADGWQDIVIGAPQYFDRDGEVGGAVYVYINQQGKWSNVKPIRLNGTKDSMFGISVKNIGDINQDGYPDIAVGAPYDDLGKVFIYHGSPTGIITKPTQVLEGTSPYFGYSIAGNMDLDRNSYPDLAVGSLSDSVTIFRSRPVINILKTITVTPNRIDLRQKSMCGSPSGICLKVKACFEYTAKPSGYNPPISILGILEAEKERRKSGLSSRVQFRNQGSEPKYTQELTLNRQKQRACMEETLWLQENIRDKLRPIPITASVEIQEPSSRRRVNSLPEVLPILNSNEAKTVQTDVHFLKEGCGDDNVCNSNLKLEYKFGTREGNQDKFSYLPIQKGIPELVLKDQKDIALEITVTNSPSDPRNPRKDGDDAHEAKLIATFPDTLTYSAYRELRAFPEKQLSCVANQNGSQADCELGNPFKRNSSVTFYLILSTTEVTFDTTDLDINLKLETTSNQDNLAPITAKAKVVIELLLSVSGVAKPSQVYFGGTVVGEQAMKSEDEVGSLIEYEFRVINLGKPLKNLGTATLNIQWPKEISNGKWLLYLMKVESKGLEQIVCEPHNEINYLKLKESHNSRKKRELPEKQIDDSRKFSLFPERKYQTLNCSVNVRCVNIRCPLRGLDSKASLVLRSRLWNSTFLEEYSKLNYLDILLRASIDVTAAAQNIKLPHAGTQVRVTVFPSKTVAQYSGVAWWIILLAVLAGILMLALLVFLLWKCGFFKRSRYDDSIPRYHAVRIRKEEREIKDEKHMDNLEKKQWITKWNENESYS
chain 2: QTDKNRCLKANAKSCGECIQAGPNCGWCTNTTFLQEGMPTSARCDDLEALKKKGCQPSDIENPRGSQTIKKNKNVTNRSKGMAEKLRPEDITQIQPQQLLLKLRSGEPQKFTLKFKRAEDYPIDLYYLMDLSYSMKDDLENVKSLGTDLMNEMRRITSDFRIGFGSFVEKTVMPYISTTPAKLRNPCTSEQNCTSPFSYKNVLSLTDRGEFFNELVGQQRISGNLDSPEGGFDAIMQVAVCGSLIGWRNVTRLLVFSTDAGFHFAGDGKLGGIVLPNDGQCHLENNVYTMSHYYDYPSIAHLVQKLSENNIQTIFAVTEEFQPVYKELKNLIPKSAVGTLSGNSSNVIQLIIDAYNSLSSEVILENSKLPDGVTINYKSYCKNGVNGTGENGRKCSNISIGDEVQFEISITANKCPNKESETIKIKPLGFTEEVEVVLQFICKCNCQSHGIPASPKCHEGNGTFECGACRCNEGRVGRHCECSTDEVNSEDMDAYCRKENSSEICSNNGECVCGQCVCRKRDNTNEIYSGKFCECDNFNCDRSNGLICGGNGVCRCRVCECYPNYTGSACDCSLDTGPCLASNGQICNGRGICECGACKCTDPKFQGPTCETCQTCLGVCAEHKECVQCRAFNKGEKKDTCAQECSHFNLTKVESREKLPQPVQVDPVTHCKEKDIDDCWFYFTYSVNGNNEAIVHVVETPDCPTGPDIIPIVAGVVAGIVLIGLALLLIWKLLMIIHDRREFAKFEKEKMNAKWDTGENPIYKSAVTTVVNPKYEGK
notes: whole, on cells
With B1, in experiment [2], the binding result is on record as “binds”.

B2: αVβ1 integrin on mouse embryonic stem cells (receptor)
chain 1: FNLDVESPAEYAGPEGSYFGFAVDFFEPSTSSRMFLLVGAPKANTTQPGIVEGGQVLKCECSSSRRCQPIEFDSTGNRDYAKDDPLEFKSHQWFGASVRSKQDKILACAPLYHWRTEMKQEREPVGTCFLQDGTKTVEYAPCRSKNIDADGQGFCQGGFSIDFTKADRVLLGGPGSFYWQGQLISDQVAEIISKYDPNVYSIKYNNQLATRTAQAIFDDSYLGYSVAVGDFNGDGIEDFVSGVPRAARTLGMVYIYDGKNMSSLHNFTGEQMAAYFGFSVAATDINGDDYADVFIGAPLFMDRGSDGKLQEVGQVSVSLQRAVGDFQTTKLNGFEVFARFGSAIAPLGDLDQDGFNDIAIAAPYGGEDKKGLVYIFNGRSTGLNSVPSQILEGQWAAQSMPPSFGYSMKGATDVDRNGYPDLVVGAFGVDRAVLYRARPVVTVNAGLEVYPSILNQDNKICPLPGTALKVSCFNVRFCLKADGKGTLPRKLHFQVELLLDKLKQKGAIRRALFLHNRSPVHSKTMTVFRGGQMQCEELVAYLRDESEFRDKLTPITIFMEYRLDQRTAADATGLQPILNQFTPANVSRQAHILLDCGEDNVCKPKLEVSVNSDQKKIYIGDDNPLTLTVKAQNQGEGAYEAELIVSIPPQADFIGVVRNNEALARLSCAFKTENQTRQVVCDLGNPMKAGTQLLAGLRFSVHQQSEMDTSVKFDLKIQSSNSFDNVSPVVSYKVDLAVLAAVEIRGVSSPDHIFLPIPNWEYKENPETEEDVGPIVQHIYELRNNGPSSFSKAILNLQWPYKYNNNTLLYILHYDIDGPMNCTADTEINPLRIKTPEKNDTAAAGQGERNHLITKRDLTLREGDVHTLGCGIAKCLQITCQVGRLDRGKSAILYVKSLLWTETFMNKENQNHSYSLKSSASFNIIEFPYKNLPIEDLFNSTLVTTNITWGIQPAPMPVPVWVIILAVLAGLLLLAVLVFVMYRMGFFKRVRPPQEEQEREQLQPHENGEGNSET
chain 2: B1 chain 2
notes: whole, on cells
For the molecule B2, in experiment [2], the binding result is recorded as “binds”.
